Measured values from US20260209359A1 (NEXTERA, published 2026).
Residue numbers refer to the chain shown, from its start.

B1: AM17 scDb (bispecific antibody)
chain: DIRLTQSPSSLSASVGDRVTMTCRASQTVATYVNWYQQKPGRAPKLLMYVTSIRQSEVPSRFSGDGFGTDFTLTINPLQPDDFATYYCQQAYSTPVTFGQGTKLEIKGGGGSEVQLQQSGPELVKPGASMKISCKASGYSFTGYTMNWVKQSHGKNLEWMGLINPYKGVSTYNQKFKDKATLTVDKSSSTAYMELLSLTSEDSAVYYCARSGYYGDSDWYFDVWGAGTTVTVSSGGGGSGGGGSGGGGSDIQMTQTTSSLSASLGDRVTISCRASQDIRNYLNWYQQKPDGTVKLLIYYTSRLHSGVPSKFSGSGSGTDYSLTISNLEQEDIATYFCQQGNTLPWTFAGGTKLEIKGGGGSQVQLVQSGAEVKKPGASVKVSCKVSGYTLTELSMHWVRQAPGKGLEWMGGFDPEDGETIYAQKFQGRVTMTEDTSTDTAYMELSSLRSEDTAVYYCATDQGSSWGFYWGQGTLVTVSS
notes: as m68; without a His-tag in the SPR assay
B2: AM2 scDb (bispecific antibody)
chain: DIRVTQSPSSLSASVGDRVTITCRASQNIMWYLNWYQQKPGKAPKLLIYAASSLQSGVPSRFSGSGSGTDFTLTISSLQPEDFATYYCQQSYSTPYTFGQGTKLEIKGGGGSEVQLQQSGPELVKPGASMKISCKASGYSFTGYTMNWVKQSHGKNLEWMGLINPYKGVSTYNQKFKDKATLTVDKSSSTAYMELLSLTSEDSAVYYCARSGYYGDSDWYFDVWGAGTTVTVSSGGGGSGGGGSGGGGSDIQMTQTTSSLSASLGDRVTISCRASQDIRNYLNWYQQKPDGTVKLLIYYTSRLHSGVPSKFSGSGSGTDYSLTISNLEQEDIATYFCQQGNTLPWTFAGGTKLEIKGGGGSQVQLVQSGAEVKKPGASVKVSCKVSGYTLTELSMHWVRQAPGKGLEWMGGFDPEDGETIYAQKFQGRVTMTEDTSTDTAYMELSSLRSEDTAVYYCATDQGSSWGFYWGQGTLVTVSS
notes: VLA-VHB-VLB-VHA, anti-CD3 UCHT1
B3: AMC9 scDb (bispecific antibody)
chain: B2 chain with S463A
notes: as m68
B4: AM11 scDb (bispecific antibody)
chain: B2 chain with S26D, Q27I, N28D, M30R, E415Y, D416L, G417A, E418R
notes: as for B1
B5: AM14 scDb (bispecific antibody)
chain: DIQLTQSPSSLSASVGDRVTITCRADIDIRWYLNWYQQKPGKAPKLLIYAASGLQSGVPSRFSGSGSGTDFTLTISSLQPEDFATYYCQQSYSTPFTFGPGTKVDIKGGGGSEVQLQQSGPELVKPGASMKISCKASGYSFTGYTMNWVKQSHGKNLEWMGLINPYKGVSTYNQKFKDKATLTVDKSSSTAYMELLSLTSEDSAVYYCARSGYYGDSDWYFDVWGAGTTVTVSSGGGGSGGGGSGGGGSDIQMTQTTSSLSASLGDRVTISCRASQDIRNYLNWYQQKPDGTVKLLIYYTSRLHSGVPSKFSGSGSGTDYSLTISNLEQEDIATYFCQQGNTLPWTFAGGTKLEIKGGGGSQVQLVQSGAEVKKPGASVKVSCKVSGYTLTELSMHWVRQAPGKGLEWMGGFDPEDGETIYAQKFQGRVTMTEDTSTDTAYMELSSLRSEDTAVYYCATDQGSSWGFYWGQGTLVTVSS
notes: as for B1
B6: 1-H02 full length human IgG1 (antibody, V domains shown)
VH: QVQLVQSGAEVKKPGASVKVSCKVSGYTLTELSMHWVRQAPGKGLEWMGGFDPEDGETIYAQKFQGRVTMTEDTSTDTAYMELSSLRSEDTAVYYCATDQGSSWGFYWGQGTLVTVSS
VL: not shown
notes: also called 1-H02 hIgG1; 1-H02 IgG
B7: AM10 Fab (Fab, V domains shown)
VH: B6 VH with S102A
VL: not shown
notes: Fab format
B8: AM2 Fab (Fab, V domains shown)
VH: B6 VH
VL: DIRVTQSPSSLSASVGDRVTITCRASQNIMWYLNWYQQKPGKAPKLLIYAASSLQSGVPSRFSGSGSGTDFTLTISSLQPEDFATYYCQQSYSTPYTFGQGTKLEIKR
B9: AM15 Fab (Fab, V domains shown)
VH: B6 VH
VL: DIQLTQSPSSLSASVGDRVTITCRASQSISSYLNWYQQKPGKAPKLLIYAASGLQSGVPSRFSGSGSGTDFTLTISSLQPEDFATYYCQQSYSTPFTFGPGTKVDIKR
B10: AMC9 Fab (Fab, V domains shown)
VH: B6 VH with S102A
VL: B8 VL
B11: 1-H02 Fab (Fab, V domains shown)
VH: B6 VH
VL: not shown
notes: Fab format

Target: T1, HLA-A*02:01/MAGE-A4^230-239 displayed on cells (MAGE-A4^230-239 pulsed T2 cells; NCI-H1703, A375, THP1, … (human, UniProt P04439 25-365 at identity 0.94); P61769 21-119)
Experiment: cell-based or functional assay

| Binder | EC50 vs. NCI-H1703 (pM), T-cell specific killing [pM] |
| --- | --- |
| B1 | 2.9 |
| B2 | 2.2 |
| B3 | 1.68 |
| B4 | 3.1 |
| B5 | 5.1 |

Target: T1, HLA-A*02:01/MAGE-A4^230-239 displayed …
Experiment: cell-based or functional assay
Remark: another data set of the same source

| Binder | EC50 vs. A375 (pM), T-cell specific killing [pM] |
| --- | --- |
| B2 | 3.7 |
| B3 | 2.4 |

Target: T1, HLA-A*02:01/MAGE-A4^230-239 displayed …
Experiment: cell-based or functional assay
Remark: another data set of the same source

| Binder | EC50 vs. C-33-A (pM), T-cell specific killing [pM] | EC50 vs. HuTu80 (pM), T-cell specific killing [pM] |
| --- | --- | --- |
| B2 | 7.2 | 7.8 |
| B3 | 1.33 | 6.6 |

Target: T1, HLA-A*02:01/MAGE-A4^230-239 displayed …
Experiment: cell-based or functional assay
Remark: another data set of the same source

| Binder | IFNγ EC50 vs. target positive cells (pM) |
| --- | --- |
| B1 | 10.9 |
| B2 | 4.4 |
| B3 | 7.6 |
| B4 | 7.2 |
| B5 | 4.1 |

Target: T2, HLA-A*02:01/MAGE-A4^230-239, soluble recombinant biotinylated pHLA (human, UniProt P04439 25-299 at identity 0.94); P61769 21-119, biotinylated)
T2 construct: Empty biotinylated HLA-A2 monomers (Tetramer Shop) loaded with synthetic peptide; also called MAGE-A4 pMHC; MAGE-A4-pHLA
Experiment: ELISA, biotinylated pHLA on neutravidin, protL-HRP
Method: Dotted lines indicate the EC₅₀ value (concentration at which half of maximal binding signal is achieved).
Assay 1 described above was performed. ELISA plates were coated with 5 μg/mL NeutrAvidin in PBS and incubated 16 h/4° C. (step (a)) and blocked with 5% skim milk powder in PBST for 1 h/room temperature (RT) (step (c)). […] Bound phage particles were detected with an anti-Fd antibody (anti-M13-HRP (Amersham Biosciences)), whereas bound IgG1 and scDb was detected with HRP conjugated protein L (Genscript) (step (i)). […] Plates were developed with TMB solution and read at 450 nm using a microplate reader (step (k)). Between each layer, the plates were washed 3× with PBST (steps (b), (d), (f), (h), and (j)).

| Binder | EC50 [nM] |
| --- | --- |
| B6 | 1.1 |

Target: T2, HLA-A*02:01/MAGE-A4^230-239, soluble …
Experiment: ELISA, soluble biotinylated pHLA on neutravidin, scDb, protL-HRP
Method: ELISA plates were coated with 5 μg/mL NeutrAvidin in PBS and incubated 16 h/4° C. (step (a)) and blocked with 5% skim milk powder in PBST for 1 h/room temperature (RT) (step (c)). […] Bound phage particles were detected with an anti-Fd antibody (anti-M13-HRP (Amersham Biosciences)), whereas bound IgG1 and scDb was detected with HRP conjugated protein L (Genscript) (step (i)). […] Plates were developed with TMB solution and read at 450 nm using a microplate reader (step (k)). Between each layer, the plates were washed 3× with PBST (steps (b), (d), (f), (h), and (j)).

| Binder | EC50 [nM] |
| --- | --- |
| B1 | 0.3 |
| B2 | 0.32 |
| B3 | 0.62 |
| B4 | 0.17 |
| B5 | 0.1 |

Target: T2, HLA-A*02:01/MAGE-A4^230-239, soluble …
Experiment: SPR, biotinylated pHLA on neutravidin chip, Fab injected (Assay 6-1); Fab format

| Binder | Kd [nM] |
| --- | --- |
| B7 | 325 |
| B8 | 86.3 |
| B9 | 148 |
| B10 | 15.8 |

Target: T2, HLA-A*02:01/MAGE-A4^230-239, soluble …
Experiment: SPR, biotinylated pHLA on neutravidin chip, Fab injected (Assay 6-1); Fab, not scDb

| Binder | Kd [nM] |
| --- | --- |
| B11 | 1410 |

Target: T2, HLA-A*02:01/MAGE-A4^230-239, soluble …
Experiment: SPR, biotinylated pHLA on neutravidin chip, scDb without His-tag injected (Assay 6-2)

| Binder | Kd [nM] |
| --- | --- |
| B1 | 10.8 |
| B4 | 3.2 |
| B5 | 0.44 |
